Experimental findings from patent publication CN113842456A (QILU PHARMACEUTICAL CO LTD, dated 2021) are described below.

Assay [1] concerns the target T1, 重组人4-1BB蛋白(ACRO，货号41B-H5227) (human, UniProt Q07011 24-186).
T1 construct: Bought recombinant protein; also called 4-1BB抗原; TNFRSF9
The assay is described as follows: SPR (BIAcore), antibody captured on Protein A on a CM5 chip, 4-1BB 20nM-0.31nM as analyte. A general note: In SPR one partner is held on a chip, and binding of the other changes the refractive index at the surface.

Assay [2] addresses 人4-1BB on HEK293/Human4-1BB细胞 (human, UniProt Q07011 24-255). The assay is described as follows: cell-based or functional assay.

人4-1BB on HEK293/Human4-1BB细胞, sequence (Q07011 24-255): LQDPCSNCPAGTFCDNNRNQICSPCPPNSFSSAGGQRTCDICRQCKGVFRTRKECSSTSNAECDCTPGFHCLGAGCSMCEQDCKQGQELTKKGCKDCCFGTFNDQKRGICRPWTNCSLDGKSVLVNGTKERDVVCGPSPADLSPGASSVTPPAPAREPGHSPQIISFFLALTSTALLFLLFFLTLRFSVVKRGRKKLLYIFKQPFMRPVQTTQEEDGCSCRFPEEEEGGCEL

B1: 抗人4-1BB的单克隆抗体MC03 (antibody, human IgG2, kappa, V domains shown)
VH: EVQLVQSGAEVKKPGATVKISCKASGFNIKDYYIHWVNQAPGKGLEWIGRIDPEDGDIAYAPKFQDRVTLTVDTSTDTAYLELSSLRSEDTAVYYCTTGNYYAMDFWGQGTTVTVSS
VL: QIVLTQSPATLSASPGERVTLSCTASSSVSSSYLHWYQQKPGSSPKLWIYSTSNLASGVPARFSGSGPGTSYTLTISSMEPEDAATYYCHQYHRSPPTFGQGTKLEIKR
notes: Obtained according to PCT/US2020/012080; The isotype control used is human IgG2; also called huG28.21.G2.1.4
B1: the dissociation constant (Kd) (commonly the concentration at which binding is half-saturated) in assay [1] was 0.918 nM. Moreover, the “NF-κB报告基因发光值(RLU) EC50” value in assay [2] was found to be 7.69 ng/mL.
